Read-outs that look alike come from different tables or passages of the source. One block for each molecule: values may come before it.
T1: human recombinant adrenomedullin receptor (CRLR+RAMP3) (human)
T1 chain: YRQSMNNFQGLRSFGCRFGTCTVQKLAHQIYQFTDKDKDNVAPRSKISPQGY

B1: NT-H (antibody, V domains shown)
VH: QVQLQQSGAELMKPGASVKISCKATGYTFSRYWIEWVKQRPGHGLEWIGEILPGSGSTNYNEKFKGKATITADTSSNTAYMQLSSLTSEDSAVYYCTEGYEYDGFDYWGQGTTLTVSS
VL: DVLLSQTPLSLPVSLGDQATISCRSSQSIVYSNGNTYLEWYLQKPGQSPKLLIYRVSNRFSGVPDRFSGSGSGTDFTLKISRVEAEDLGVYYCFQGSHIPYTFGGGTKLEIK
notes: also called NT-H antibody; antibody NT-H
B2: mouse adrenomedullin (mADM 1-50) (peptide)
peptide: YRQSMNQGSRSNGCRFGTCTFQKLAHQIYQLTDKDKDGMAPRNKISPQGYNH
B3: human adrenomedullin (hADM 1-52) (peptide)
peptide: T1 chain

Assays:
[1] = target: ADM (human or mouse not stated for this entry); test: cell-based or functional assay
[2] = target: B3; test: cell-based or functional assay
[3] = target: B3; test: cell-based or functional assay
[4] = target: B3; test: SPR (Biacore 2000), antibody captured via anti-mouse Fc, Adrenomedullin in solution
Method: Reversible immobilization of the antibodies was performed using an anti-mouse Fc antibody covalently coupled in high density to a CM5 sensor surface according to the manufacturer's instructions (mouse antibody capture kit; GE Healthcare). (Lorenz et al.,” Functional Antibodies Targeting IsaA of Staphylococcus aureus Augment Host Immune Response and Open New Perspectives for Antibacterial Therapy”; Antimicrob Agents Chemother. 2011 January; 55(1): 165-173.)

[5] = target: T1, human recombinant adrenomedullin …; test: cell-based or functional assay
[6] = target: T1, human recombinant adrenomedullin …; test: cell-based or functional assay

Maximal inhibition of ADM bioactivity (ADM-Bioassay) (%) [1]: 0%
Molecule: Non specific mouse IgG (antibody)

Molecule: B1
stability of hADM in human citrate plasma with NT-H against hADM alone [2]: 2.3 fold | IC50 (read off the curve) [3]: ~2 µg/mL | Kd [4]: 5.9 nM

Molecule: B2
EC50 (read off the curve) [5]: ~0.08 nM

Molecule: B3
EC50 (read off the curve) [6]: ~1 nM

— patent US20130195874A1 (ADRENOMED, published 2013)
